Here are results for two molecules from US20260078416A1, “ORTHOGONAL METABOLIC FRAMEWORK FOR ONE-CARBON UTILIZATION” (Mojia Biotech Pte. Ltd., priority 2021, published 2026).

In series [1] the test system is tartronate production from glyoxylate and formate. The series is described as follows: HACS screening with glyoxylate and formate (tartronate productivity). Type of series: cell-based, E. coli. Conditions: 5 mM glyoxylate and 20 mM formate, first round. The text has this: We used 2-hydroxyacid productivity per cell density (μM/OD600) as indicator of HACS activity. 2-Hydroxyacids can be produced co-feeding various aldehydes and formic acid (formate) as carbon source in the presence of active HACS variant and acyl-CoA transferase from Clostridium aminobutyricum (CaAbfT). CaAbfT is shown to be capable of catalyzing reaction from formate to formyl-CoA (Nattermann, M., et al. ACS Catal 11 (9): 5396-5404 (2021)). HACS condenses aldehyde and formyl-CoA to form 2-hydroxyacyl-CoA, which can then be hydrolyzed to 2-hydroxyacid via native thioesterase activities (FIG. 31A).
For the in vivo prototyping, we engineered vectors to independently control expression of HACS variants and CaAbfT, with HACS under control of the IPTG-inducible T7 promoter in pCDFDuet-1 and CaAbfT under control of a cumate-inducible T5 promoter in pETDuet-1 (FIG. 31B) and transformed them into the engineered strain of E. coli described in EXAMPLE 3.
The HACS variants were screened for 2-hydroxyacid production using the high throughput screening platform as described in EXAMPLE 3 by co-feeding 5 mM aldehyde and 20 mM formate. The cells were harvested after 1 hour by centrifugation and the supernatant analyzed by HPLC (as described in EXAMPLE 2) or SoGO method.
We used tartronic acid (tartronate) productivity per cell density (uM tartronate/OD600) as indicator of HACS activity. […]

Series [2] can be described thus: In vitro condensation of methyl ketones with formyl-CoA using purified enzymes. Type of series: biochemical. Conditions: 100 mM methyl ketone, 20 mM formate, 30° C., 24 hours, GC-MS. How it is done: The formyl-CoA generation catalyzed by CoA transferase CaAbfT and condensation catalyzed by HACS JGI15 is identical to the examples described above (FIG. 38A).
The enzymes CoA transferase CaAbfT and HACS JG115 were overexpressed and purified as described above. In vitro purified enzyme reactions for condensation of methyl ketone and formyl-CoA were comprised of 100 mM KPi pH 6.9, 10 mM MgCl2, 0.15 mM TPP, 2 mM acetyl-CoA, 1 μM JGI15, 2 μM CaAbfT, 20 mM formate and 100 mM tested methyl ketones. Reactions were incubated at 30° C. for 24 hours unless otherwise specified.
For this analysis, samples containing acyl-CoAs were first treated with 1/20 of the reaction volume of 10 M NaOH solution was added to terminate the reactions. After 30 min hydrolysis, 1/20 of the reaction volume of 10 N H2SO4 was added to improve the efficiency of acid extraction. The resulting sample was extracted into 4 mL ethyl acetate by vigorous vortexing for 90 seconds. The organic phase was separated and evaporated to dryness under a stream of nitrogen. […] Samples were analyzed by GC (1 μL injection with a 20:1 split ratio) using helium as the carrier gas at a flowrate of 1.5 mL/min and the following temperature profile: initial 90° C. for 3 min; ramp at 15° C./min to 170° C.; ramp at 20° C./min to 300° C. and hold for 8 min. […]

Series [3] is described as follows: In vitro kinetic assay of purified HACS variants; substrate acetone. The class given is biochemical. As to the method: The kinetic assay was performed with a coupled reaction providing formyl-CoA from formate catalyzed by CoA transferase CaAbfT using acetyl-CoA as a CoA donor.
In vitro kinetic assay was comprised of 100 mM KPi pH 6.9, 10 mM MgCl2, 0.15 mM TPP, 2 mM acetyl-CoA, 1 μM CaAbfT, 0.25 μM HACS variants, and 20 mM sodium formate. Reactions were incubated at room temperature for 3 min to convert formate to formyl-CoA, and then specific concentration of aldehyde (specifically acetaldehyde or propionaldehyde here) was added to the reaction. After incubating another 3 min, 1/20 of the reaction volume of 10 M NaOH solution was added to terminate the reactions. After 30 min hydrolysis, 1/20 of the reaction volume of 10 N H2SO4 was added to neutralize the pH. Samples were centrifuged at 20817×g for 15 minutes and the supernatant analyzed by GC-MS as described below.
For this analysis, 0.15 of the reaction volume of internal standard methyl succinate was added to the samples. The resulting sample was extracted into 4 mL ethyl acetate by vigorous vortexing for 20 min. […] Samples were analyzed by GC (1 μL injection with a 20:1 split ratio) using helium as the carrier gas at a flowrate of 1.5 mL/min and the following temperature profile: initial 90° C. for 3 min; ramp at 15° C./min to 170° C.; ramp at 20° C./min to 300° C. and hold for 8 min. […]

B1: JGI20: HACS variant; GenBank PWB41796.1 (protein)
chain: MGQITGAQIVARALKQQGVEYMFGIVGIPVIPIAMFAQREGIKFYGFRNEQSASYAAAAVGYLTGRPGVCLGVSGPGMIHGVAGMANAWSNCWPMILIGGANDSYQNGQGAFQEAPQIEAARPFAKYCARPDSLARLPFYVEQAVRTSIYGRPGAVYLDLPGDIITGAMEEEDVHFPPRCPDAPRMMAPQESIDAAMAALKSAERPLVIVGKGAAYSRAENEVREFLETTQLPYLASPMGKGVMPDDHPLSIAPARSAALLGADVILLMGARLNWMMHFGHPPRFDPKVRVIQMDISAEEIGTNVPTEVALVGDAKAITTQLNASLKQQPWQYPSETTWWTGLRKKIDENGATVAEMMADESVPMSYYRVYREIRDLIPNDAIIQNEGASTMDIGRTLMPNFLPRHRLDAGSFGTMGVGLGQAIAAAAVHPDKHVFCIEGDSAFGFSGMEVETAARYGMKNITFIIINNNGIGGGPDTLDPTRVPPSAYTPNAHYEKMAEIYGGKGYFVTEPSQLRPALEEAIKADKPAIVNIMISATSQRKPQQFAWLTR
Take B1: the “better tartronate productivity compared to other HACS variants” value in series [1] is 30%.

B2: JGI15: HACS variant; GenBank HAK63664.1 (protein)
chain: MAKSEGKVNGATLMARALQQQGVQYMFGIVGFPVIPIAIAAQREGITYIGMRNEQSASYAAQAASYLTGRPQACLVVSGPGVVHALAGLANAQVNCWPMLLIGGASAIEQNGMGAFQEERQVLLASPLCKYAHQVERPERIPYYVEQAVRSALFGRPGAAYLDMPDDVILGEVEEAAVRPAATVGEPPRSLAPQENIEAALDALQSAKRPLVIVGKGMAWSRAENEVRQFIERTRLPFLATPMGKGVMPDDHPLSVGGARSHALQEADLVFLLGARFNWILHFGLPPRYSKDVRVIQLDLSAEEIGNNRQAEVALVGDGKAIVGQLNQALSSRQWFYPAETPWREAIAAKIAGNQAAVAPMIADNTSPMNYYRVYRDIAARLPRNAIIVGEGANTMDIGRTQMPNFEPRSRLDAGSYGTMGIGLGFAVAAAAVHPGRPVIAVQGDSAFGFSGMEFETAARYGMPIKVIILNNGGIGMGSPAPRDGQPGMPHALSHDARYERIAEAFGGAGFYVTDSAELGPALDAAMAFKGPAIVNIKIAATADRKPQQFNWHG
Regarding B2, the “condensation of methyl ketones with formyl-CoA” value in series [2] is recorded as “could catalyze the condensation of tested ketones”. Moreover, the “Kcat, app” value in series [3] was 6.8 s⁻¹.
